Drawing on patent US20190022241A1 (AbbVie / Abbott, published 2019), this text covers binding result and Kd for two molecules.

Experiment [1] deals with T1, extracellular domain of cynomolgus SEZ6 on yeast (cynomolgus, UniProt Q53EL9 23-925 (human entry)).
T1 construct: yeast display; the whole entry is named; also called cSEZ6; cynomolgus SEZ6 ECD
T1 chain: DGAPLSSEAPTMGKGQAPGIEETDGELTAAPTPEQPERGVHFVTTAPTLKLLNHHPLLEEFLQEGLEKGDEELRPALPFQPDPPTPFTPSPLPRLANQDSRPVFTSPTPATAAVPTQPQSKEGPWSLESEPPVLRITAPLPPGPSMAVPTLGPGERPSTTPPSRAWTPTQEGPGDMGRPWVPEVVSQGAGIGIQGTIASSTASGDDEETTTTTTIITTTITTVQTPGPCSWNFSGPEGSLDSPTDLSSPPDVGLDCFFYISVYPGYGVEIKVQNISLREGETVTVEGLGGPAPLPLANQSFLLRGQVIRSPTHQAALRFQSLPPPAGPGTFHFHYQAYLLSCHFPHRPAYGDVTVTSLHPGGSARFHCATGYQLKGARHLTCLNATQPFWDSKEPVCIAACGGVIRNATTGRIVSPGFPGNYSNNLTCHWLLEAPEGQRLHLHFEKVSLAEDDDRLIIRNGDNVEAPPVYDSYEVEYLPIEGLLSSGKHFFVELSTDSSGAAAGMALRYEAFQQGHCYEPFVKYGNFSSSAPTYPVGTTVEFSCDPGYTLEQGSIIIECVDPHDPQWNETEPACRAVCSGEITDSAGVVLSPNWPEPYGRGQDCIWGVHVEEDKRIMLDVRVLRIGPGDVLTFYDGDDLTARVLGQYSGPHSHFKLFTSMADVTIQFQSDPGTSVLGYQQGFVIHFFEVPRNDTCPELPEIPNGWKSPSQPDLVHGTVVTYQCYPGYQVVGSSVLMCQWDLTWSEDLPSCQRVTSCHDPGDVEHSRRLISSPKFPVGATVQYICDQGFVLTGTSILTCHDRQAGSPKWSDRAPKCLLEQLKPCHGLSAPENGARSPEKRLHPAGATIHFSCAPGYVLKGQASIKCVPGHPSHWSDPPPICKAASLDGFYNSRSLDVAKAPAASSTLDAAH
The experiment can be described thus: flow cytometry, yeast displaying cynomolgus SEZ6 ECD, 5 ug/mL antibody.
Description: (§1) Briefly 1×10⁵ cells per well of Neuro2a, RIN-5mF, or yeast displaying cynomolgus SEZ6 cells were incubated for 30 minutes with 50 μL PBS (2% FCS) buffer with 5 μg/mL antibody. […] After incubating for 15 minutes cells were washed twice with the PBS buffer and re-suspended in the same with DAPI for flow cytometry analysis of Neuro2a and Rin-m5F or buffer without DAPI for flow cytometric analysis of yeast cells with cSEZ6.

The target of the next experiment is T2, rSEZ6-ECD-His (rat, UniProt Q7TSK2 20-922 (mouse entry)).
T2 construct: the whole entry is named; also called rat recombinant SEZ6-His; rat SEZ6 ECD
T2 chain: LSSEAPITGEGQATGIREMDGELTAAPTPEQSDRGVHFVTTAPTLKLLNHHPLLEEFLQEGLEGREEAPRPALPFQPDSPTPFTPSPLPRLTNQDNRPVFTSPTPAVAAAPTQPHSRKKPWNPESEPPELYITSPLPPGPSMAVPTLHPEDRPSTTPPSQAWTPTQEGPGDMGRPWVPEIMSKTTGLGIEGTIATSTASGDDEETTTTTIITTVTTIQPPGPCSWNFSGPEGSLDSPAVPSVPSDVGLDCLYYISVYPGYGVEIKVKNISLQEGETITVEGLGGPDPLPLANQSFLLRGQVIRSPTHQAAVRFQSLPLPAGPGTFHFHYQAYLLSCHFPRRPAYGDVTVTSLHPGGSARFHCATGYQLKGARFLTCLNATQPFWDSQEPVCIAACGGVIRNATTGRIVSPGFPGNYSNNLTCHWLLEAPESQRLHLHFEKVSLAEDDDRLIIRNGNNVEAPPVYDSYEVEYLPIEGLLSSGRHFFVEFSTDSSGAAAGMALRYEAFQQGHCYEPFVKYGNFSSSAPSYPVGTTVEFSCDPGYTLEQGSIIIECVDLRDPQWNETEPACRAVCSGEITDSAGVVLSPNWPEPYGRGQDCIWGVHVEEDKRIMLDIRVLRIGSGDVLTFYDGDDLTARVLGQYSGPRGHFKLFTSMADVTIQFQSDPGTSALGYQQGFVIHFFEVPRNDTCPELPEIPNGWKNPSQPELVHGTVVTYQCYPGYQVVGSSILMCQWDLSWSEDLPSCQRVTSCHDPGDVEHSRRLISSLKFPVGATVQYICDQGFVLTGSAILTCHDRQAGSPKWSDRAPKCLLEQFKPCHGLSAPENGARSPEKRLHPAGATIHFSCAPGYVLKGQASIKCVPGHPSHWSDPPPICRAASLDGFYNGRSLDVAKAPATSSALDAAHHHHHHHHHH
Description: bio-layer interferometry (ForteBio RED) or surface plasmon resonance (Biacore 2000) on rat SEZ6-His; the table does not say which; column Rat XR (Kd, nM). A general note: Biolayer interferometry detects binding as a change in optical thickness at a sensor tip.

Experiment [2] deals with T3, mouse SEZ6 on Neuro2a cells (mouse, UniProt Q7TSK2 20-991).
T3 construct: endogenous on Neuro2a cells; also called murine SEZ6; mSEZ6
T3 sequence (Q7TSK2 20-991): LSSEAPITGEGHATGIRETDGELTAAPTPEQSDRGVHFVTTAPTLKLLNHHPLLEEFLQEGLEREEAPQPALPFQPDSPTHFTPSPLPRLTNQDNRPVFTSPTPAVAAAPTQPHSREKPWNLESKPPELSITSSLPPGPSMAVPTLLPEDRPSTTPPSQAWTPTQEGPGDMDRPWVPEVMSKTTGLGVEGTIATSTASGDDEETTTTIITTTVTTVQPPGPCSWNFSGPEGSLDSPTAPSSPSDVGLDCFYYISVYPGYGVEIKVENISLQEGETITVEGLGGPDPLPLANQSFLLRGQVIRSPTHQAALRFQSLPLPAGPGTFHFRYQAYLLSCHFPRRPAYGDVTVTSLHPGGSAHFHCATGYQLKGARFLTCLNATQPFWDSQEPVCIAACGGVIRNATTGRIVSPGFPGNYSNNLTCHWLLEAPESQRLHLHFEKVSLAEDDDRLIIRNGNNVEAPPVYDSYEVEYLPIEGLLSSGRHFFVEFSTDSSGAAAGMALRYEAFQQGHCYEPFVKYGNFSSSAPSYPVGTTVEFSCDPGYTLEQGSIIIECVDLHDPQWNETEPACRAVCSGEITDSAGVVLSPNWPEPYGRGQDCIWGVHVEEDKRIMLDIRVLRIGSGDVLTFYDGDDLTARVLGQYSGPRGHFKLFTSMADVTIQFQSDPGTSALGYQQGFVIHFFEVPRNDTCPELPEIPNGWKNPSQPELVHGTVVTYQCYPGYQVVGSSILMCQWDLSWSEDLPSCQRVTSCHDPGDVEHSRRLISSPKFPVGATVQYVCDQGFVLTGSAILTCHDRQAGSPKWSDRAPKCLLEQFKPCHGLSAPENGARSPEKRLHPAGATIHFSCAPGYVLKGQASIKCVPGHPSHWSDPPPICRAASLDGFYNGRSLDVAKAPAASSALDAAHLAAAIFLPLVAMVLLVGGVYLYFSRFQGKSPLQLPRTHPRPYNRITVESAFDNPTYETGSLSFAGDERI
Description: flow cytometry on Neuro2a cells expressing mouse SEZ6. In general terms: In flow cytometry, cells or beads pass a laser one at a time.
Description: as §1

Description for rSEZ6-ECD-His: Various methods were used to analyze the binding and immunochemical characteristics of selected SEZ6 modulators generated as set forth above.

B1: SC17.34 (antibody, V domains shown)
VH: EVQLQQSGPELVKPGSSVKISCKASGYTFTDYNMDWVKQSHGKRLEWIGYIYPDNGGAGYNQKFKGKATLTVDKSSSTAYMELRSLTSEDSAVYYCSRSITTAWFAYWGQGTLVTVSA
VL: DIKMTQSPSSMYASLGERVTITCKASQDINSYLSWFQQKPGKSPKTLIYRANRLVDGVPSRFSGSGSGQDYSLTISSLEYEDMGIYYCLQYDEFPPTFGGGTKLEIK
notes: murine mAb
On to B1, for which the figures for the binding result in experiment [1] and in experiment [2] were “binds” and “no binding (tested: 5 µg/mL)”, respectively. In the experiment with rSEZ6-ECD-His, this molecule yielded a Kd of 79.5 nM.

B2: SC17.17 (antibody, V domains shown)
VH: EVQLQQSGPEVMKPGASVKMSCKASGYTFTDYNMHWVKQNQGKSLEWIGEINPNIGGTGYNQKFKGKATLTVHKSSSTAYMELRSLTSEDSAVYYCARTYSYYSYEFAYWGQGTLVTVSA
VL: QIVLTQSPAIMSASPGEKVTMTCSASSSVSYMHWYQQKSGTSPKRWIYDTSKLPSGVPARFSGSGSGTSYSLTISSMEAEDAATYYCQQWSSTPPTFGAGTKLELK
notes: murine mAb
As to B2, the binding result in experiment [1] is recorded as “binds”; in experiment [2], “no binding (tested: 5 µg/mL)”. Moreover, in the experiment with rSEZ6-ECD-His, the Kd turned out to be 5 nM.

By Kd is commonly meant the free concentration of one partner at which half of the binding sites on the other are occupied at equilibrium, for simple one-to-one binding. Low readings indicate a tighter complex, high ones a looser complex.
